In series [1] the test system is in_vivo. Particulars: cited from earlier work.
The subject of series [2] is in_vivo. Particulars: oseltamivir combined with up to 8,400 mg antibody; cited from earlier work.
Series [3] has as its system in_vivo. Briefly: Influenza ADE study in mice, lung virus load by plaque assay. Also on record: species or system BALB/c mice. From the text:
Graphs of lung virus load vs dose in 3I14 (left) and 3I14 LALA (right) in an influenza antibody-dependent enhancement study in mice.
3I14 LALA avoids antibody-dependent enhancement (ADE).

The target in series [4] is binding. Particulars: read-out: mean Kd H9-HK99.
For series [5], the system named is binding. Also on record: species or system influenza A virus.
The target of series [6] is cell_based (Influenza A virus, UniProt C3W5S1).
Series [7] has as its system in_vivo. Also on record: species or system BALB/c mice.
In series [8] the test system is binding. Details: species or system influenza A virus. This is another data set of the same source.
Series [9] has as its system T1, cell_based.
T1 construct: other: purified scFvFc antibodies; transfected 293T cells; The full length HA genes of ... were cloned into pcDNA3.1 vector and transfected into 293T/17 cells to produce cell surface expressed HA
Details: species or system influenza A virus.

Series [10] concerns cell_based.
Series [11] relates to cell_based. Also on record: species or system influenza A virus.
The subject of another series is biochemical_functional. Details: species or system influenza A virus. Conditions: pH 8.
Series [12] concerns binding. Details: species or system influenza A virus. The source holds these as a separate data set.
The target of series [13] is cell_based (Influenza A virus, UniProt P03452).
Sequence of cell_based (Influenza A virus, UniProt P03452) (P03452 344-565): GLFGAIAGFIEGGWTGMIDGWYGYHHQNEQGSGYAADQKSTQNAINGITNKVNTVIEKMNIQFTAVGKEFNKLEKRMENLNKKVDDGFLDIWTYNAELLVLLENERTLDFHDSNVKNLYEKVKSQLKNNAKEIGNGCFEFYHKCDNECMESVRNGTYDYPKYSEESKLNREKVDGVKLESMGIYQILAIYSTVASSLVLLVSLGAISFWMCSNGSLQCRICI
Sequence of cell_based (Influenza A virus, UniProt P03452) (P03452 18-343): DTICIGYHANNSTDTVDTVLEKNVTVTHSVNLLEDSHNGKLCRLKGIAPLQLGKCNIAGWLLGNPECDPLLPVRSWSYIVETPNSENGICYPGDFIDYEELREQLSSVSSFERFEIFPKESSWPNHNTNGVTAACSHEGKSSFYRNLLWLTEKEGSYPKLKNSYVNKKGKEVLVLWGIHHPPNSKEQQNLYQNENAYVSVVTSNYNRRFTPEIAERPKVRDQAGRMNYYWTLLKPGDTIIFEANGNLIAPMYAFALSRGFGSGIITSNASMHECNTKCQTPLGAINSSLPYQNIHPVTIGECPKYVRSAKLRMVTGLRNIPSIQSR
Series [14] concerns binding. Also on record: species or system influenza A virus. The source holds these as a separate data set.
Series [15] concerns the target binding (Influenza A virus, UniProt C3W5S1).
The target in series [16] is binding. Also on record: species or system influenza A virus. Conditions: read-out: mean Kd H5-IN05.
In series [17] the test system is cell_based. Also on record: species or system influenza A virus. This is another data set of the same source.
The test system of series [18] is in_vivo. Also on record: species or system BALB/c mice. This is another data set of the same source.
Series [19] concerns in_vivo. Also on record: species or system BALB/c mice. The source holds these as a separate data set.
Series [20] concerns cell_based. Details: species or system influenza A virus. The source holds these as a separate data set.
Series [21] concerns in_vivo. Also on record: species or system BALB/c mice. This is another data set of the same source.
Series [22] deals with cell_based. The source holds these as a separate data set.
Series [23] deals with binding. Also on record: species or system influenza A virus. This is another data set of the same source.
The test system of series [24] is binding. Also on record: species or system influenza A virus. This is another data set of the same source.

The source of these data is patent US20260167702A1, “HUMAN BROADLY CRO[…] […] METHODS OF USE THEREOF” (Dana-Farber Cancer Institute, Inc., priority 2021, published 2026).

“And” between values parts separate entries of the source, which are not always exact repeats. Equal entries are not always repeated. “Also recorded” adds a separate entry of the source. Where two headings read alike, the source gives them in different places.

B1: MHAA4549A: Genentech broadly neutralizing influenza A mAb (antibody, chains of the INN, looked up, V domains shown)
VH: EVQLVESGGGVVQPGKSLRLSCAASGLTFSSYAVHWVRQAPGKGLEWVTLISYDGANQYYADSVKGRFTISRDNSKNTVYLQMNSLRPEDTAVYYCAVPGPVFGIFPPWSYFDNWGQGILVTVSS
VL: EIVLTQSPATLSVSPGERATLSCRASQVISHNLAWYQQKPGQAPRLLIYGASTRASGIPARFSGSGSGTDYTLTITSLQSEDFAVYYCQHYSNWPPRLTFGGGTKVEIK
Regarding B1, the viral load result in the series with in_vivo [1] (1200 mg, listed as MHAA4549A/Gedivumab) was “increase in viral load”. In addition, the viral loads result in the series with in_vivo [1] (400 and 3600 mg) is given as “reduction in viral loads”. Further, in the series on in_vivo [2], the “O2 or ventilation support” value was “required increase in O2 or ventilation support”, the “duration of viral shedding” value is on record as “increased duration of viral shedding” and the “fatality due to any cause” value is given as “higher fatality percentage due to any cause”.

B2: 3I14: human broadly neutralizing anti-influenza A HA stem mAb from memory B cells; VH SEQ ID NO: 2, VL SEQ ID NO: 4 (antibody, V domains shown)
VH: QVQLLESGGGVVQPGRSLRLSCAASGFTFSNYGMHWVRQAPGKGLEWVAIISFDGSKKYYANSVKGRSTISRDNSKNTLSLQMNSLGPEDTALYYCAKLPSPYYFDSRFVWVAASAFHFWGQGILVTVSS
VL: NFMLTQPPSASGTPGQRVTISCSGSSSNIGGNTVHWFQQLPGTAPKLLIYTNSLRPSGVPDRFSGSKSGTSASLAISGLQSEDEADYYCAAWDDSLNGQVFGGGTKLTVL
In the case of B2, in the series on in_vivo [3] (doses ≥5 mg/kg), the “virus levels in the lungs at high doses” value was “reduced virus levels”. Also, in the series with in_vivo [3] (intermediate low dose levels), the “increase of viral titers in lung tissue, 3I14 compared to 3I14 LALA” value is recorded as roughly 2 fold. For the same molecule, the “virus levels in the lungs compared with controls” value in the series with in_vivo [3] (intermediate low dose levels, IP 1 hour prior to intranasal challenge, Day 4) is roughly 2 fold. Moreover, the Kd (usually a measure of binding affinity in units of concentration) on binding [4] was determined as 5.23 nM. Besides, in the series with binding [5], the “Koff H5-VN04” value is 0.000383 s⁻¹ and 0.000387 s⁻¹; the “Kon H5-VN04” value was 375000 M⁻¹ s⁻¹ and 327000 M⁻¹ s⁻¹. For the same molecule, the “IC50 H1-CA09” value in the series with cell_based [6] amounted to 0.225 µg/mL. Further, in the series on in_vivo [7], the “body weight loss, H7N7-NL219 challenge” value is on record as “minimal body weight loss” and the “protection from death, H7N7-NL219 challenge” value is listed as “fully protected”. Besides, the “affinity for H1 subtypes” value in the series with binding [8] is given as “high affinity”. Also, in the series on cell_based [9], the “binding to cell surface-expressed HAs by flow cytometry” value is “bound”. Further, the “luciferase response in Jurkat reporter cells (ADCC), H5 targets” value in the series on cell_based [10] is “at a lower level than FI6v3, CR9114, 39.29 and F10”. Further, the “IC50 H3-BR07 infectious virus” value with cell_based [11] turned out to be 0.3054 µg/mL. In the series on biochemical_functional, the “prevention of trypsin cleavage of immature HA0” value was “prevented cleavage of immature HA0”. In the series with binding [12], the “inhibition of binding of 39.29 and F10 to H5-VN04” value is “inhibited; also recorded: partially inhibits”; the “inhibition of binding of anti-H5 head antibody 2A to H5-VN04” value is “did not inhibit; also recorded: does not inhibit”. In addition, the “IC50 H1-PR8” value with cell_based [13] was determined as 0.413 µg/mL. The “binding to HA1 subunit of H3 PE-09” value with binding [14] is listed as “did not bind”. Further, in the series with binding [15], the “Koff H1-CA09” value worked out at 4.87e-05 s⁻¹ and the “Kon H1-CA09” value was determined as 174000 M⁻¹ s⁻¹. Also, the Kd in the series with binding [15] (read-out: Kd H1-CA09) turned out to be 0.279 nM. Also, on binding [16], the Kd was found to be 1.05 nM. Further, in the series on cell_based [17], the “HA1-HA2 dissociation after DTT treatment” value is on record as “prevented HA1-HA2 dissociation”; the “binding to dissociated HA2 mediated by DTT reduction” value is recorded as “did not bind”; the “binding to uncleaved HA precursor (HA0) and mature forms (HA)” value was “binds to both uncleaved HA precursor (HA0)”. Also, the “inhibition of pH-dependent HA rearrangement” value with cell_based [17] (pH 4.9) is reported as “inhibits the pH-dependent HA rearrangement”. For the same molecule, in the series on in_vivo [18], the “body weight loss, H7N9-AH13 challenge” value is “minimal body weight loss” and the “protection from death, H7N9-AH13 challenge” value is “fully protected”. In the series on in_vivo [19], the “protection against H3N2-BR07” value is reported as 80% and the “protection against H3N2-BR07, over doses” value is given as 60-80%. In addition, the “IC50 H5-VN04 pseudovirus” value with cell_based [20] was 0.08158 µg/mL. Besides, in the series on in_vivo [21], the “protection against H5N1-VN04” value stood at 60% and the “protection against H5N1-VN04, over doses” value was 20-60%. The “luciferase response in Jurkat reporter cells (ADCC), H3 targets” value with cell_based [22] is listed as “induced a significant luciferase response”. In the series with binding [23], the “Koff H3-PE09” value turned out to be 3.99e-05 s⁻¹, the “Kon H3-PE09” value was 152000 M⁻¹ s⁻¹ and the “binding to trimeric full-length H3 A/Perth/16/09” value is on record as “bound”.

B3: 3I14 Fab: Fab of 3I14 used in the binding competition ELISA (antibody, V domains shown)
VH: B2 VH
VL: B2 VL
Consider B3, for which, in the series on binding [24], the “competition with E730 (anti-HA1 head Ab) for binding to H3-BR07” value is “did not compete”; the “competition with anti-stem Abs CR8020, CR9114, FI6(v3) and 39.29 for binding to H3-BR07” value is “cross-competed; also recorded: strongly inhibits”.
